Tests used:
[1] = target: T1, recombinant STIM1 EF/SAM peptide (STIM1 aa 58-201) (human, UniProt Q13586 58-201); assay: ELISA on recombinant STIM1 EF-SAM peptide (aa 58-201) at 1 µg/mL, B-M4 titrated
T1 construct: also called soluble recombinant protein corresponding to the STIM1 EF-Hand domain
Procedure: (§1) FIG. 3 illustrated the validation by Elisa of the monoclonal anti-STIM1 antibody clone B-M4. […] Anti-STIM1 mAb clone B-M4 mAb (10 μg/ml) was diluted to 1/10 and antigens STIM1 biotinylated peptides used at concentrations of 50 ng/well for peptides 1A and 1B and 100 ng/well for peptide 2A and 10 ng/well for peptide 2B. Panel B: Specificity of the B-M4 antibody for STIM1 is confirmed by ELISA using the peptide 2B and a recombinant STIM1 EF/SAM peptide (1 μg/mL). B-M4 mAb used at 100 μg/mL diluted to 1/10. Panel C: Specificity for the B-M4 antibody for the peptide 2B over the other peptides (1A, 1B, 2A, 2B, C2, C3, C4, C5, C6, C7 and C8). Peptides are used at a concentration of 1 μg/mL. Histograms represents mean optical density measured using an Elisa approach.

[2] = target: T1, recombinant STIM1 EF/SAM peptide (STIM1 …); assay: Octet, EF-SAM peptide at 300, 200 and 133 nM, 1 to 1 fitting model; column kdis, same value in all three rows [table]
Procedure: (§2) FIG. 9 represents the determination of the anti-STIM1 mAb clone B-M4 affinity. […] High affinity interaction is characterized by a low K, a fast recognizing (high kon) and a stable formation of complexes (low kdis). kdis: dissociation rate constant. kon: complex formation rate.
(§3) Affinity constants (Kon, Kdis) were calculated.

[3] = target: T1, recombinant STIM1 EF/SAM peptide (STIM1 …); assay: Octet, EF-SAM peptide at 300, 200 and 133 nM, 1 to 1 fitting model; same value in all three rows [table]
Procedure: as §2, §3

Peptide 2A = target: T2, Peptide 2A (biotinylated in the ELISA of Figure 3 A (site not given)); assay: ELISA, DO492 - DO Blanc
T2 construct: also called STIM1 peptide 2A; aa 62 to aa 95
T2 sequence (peptide, as listed by the source): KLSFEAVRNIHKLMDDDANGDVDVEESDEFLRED
Procedure: as §1

Peptide 1B = target: T3, Peptide 1B (biotinylated in the ELISA of Figure 3 A (site not given)); assay: ELISA, DO492 - DO Blanc
T3 construct: also called STIM1 peptide 1B; aa 169 to aa 197
T3 sequence (peptide, as listed by the source): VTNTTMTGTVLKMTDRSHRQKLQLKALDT
Procedure: as §1

[4] = target: T1, recombinant STIM1 EF/SAM peptide (STIM1 …); assay: Octet (BLI), 1 to 1 fitting model, EF-SAM peptide at 300, 200 and 133 nM
Procedure: as §3

Peptide 1A = target: T4, Peptide 1A (biotinylated in the ELISA of Figure 3 A (site not given)); assay: ELISA, DO492 - DO Blanc and DO492 - DO630
T4 construct: also called STIM1 peptide 1A; aa 128 to aa 168
T4 sequence (peptide, as listed by the source): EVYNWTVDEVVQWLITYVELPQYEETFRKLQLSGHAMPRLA
Procedure: as §1

[5] = target: T5, mouse STIM1 at the plasma membrane of mouse spleen B and T cells (mouse, UniProt P70302 23-685); assay: direct flow cytometry with PE coupled B-M4 on spleen B and T cells, n=4
T5 construct: whole, on cells; also called mSTIM1 (mice B and T cells)
T5 sequence (P70302 23-685): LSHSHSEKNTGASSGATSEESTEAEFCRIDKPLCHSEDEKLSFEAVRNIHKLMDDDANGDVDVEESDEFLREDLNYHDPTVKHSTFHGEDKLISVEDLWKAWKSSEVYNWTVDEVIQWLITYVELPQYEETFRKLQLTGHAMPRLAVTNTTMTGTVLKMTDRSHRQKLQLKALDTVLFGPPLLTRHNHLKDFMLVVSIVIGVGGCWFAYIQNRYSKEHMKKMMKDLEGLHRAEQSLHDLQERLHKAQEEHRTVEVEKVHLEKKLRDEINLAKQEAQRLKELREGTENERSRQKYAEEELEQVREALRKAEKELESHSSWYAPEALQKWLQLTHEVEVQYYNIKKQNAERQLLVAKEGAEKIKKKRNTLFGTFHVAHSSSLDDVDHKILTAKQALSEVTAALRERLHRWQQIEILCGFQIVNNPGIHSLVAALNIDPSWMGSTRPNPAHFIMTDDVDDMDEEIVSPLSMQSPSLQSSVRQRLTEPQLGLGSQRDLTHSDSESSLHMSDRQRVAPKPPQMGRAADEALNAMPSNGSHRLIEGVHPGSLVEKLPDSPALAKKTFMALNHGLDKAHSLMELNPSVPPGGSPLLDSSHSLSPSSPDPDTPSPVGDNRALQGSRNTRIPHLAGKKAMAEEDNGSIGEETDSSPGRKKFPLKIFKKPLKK

[6] = target: T6, STIM1 peptide 2B (amino acids 97-127 of STIM1) (human, biotinylated in the ELISA of FIG. 3 panel A (position not given)); assay: ELISA on Peptide 2B (aa 97-127), B-M4 titrated
T6 construct: One of the two immunization peptides
T6 sequence (peptide, as listed by the source): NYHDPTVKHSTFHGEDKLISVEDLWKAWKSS
Procedure: as §1

T1 sequence (Q13586 58-201): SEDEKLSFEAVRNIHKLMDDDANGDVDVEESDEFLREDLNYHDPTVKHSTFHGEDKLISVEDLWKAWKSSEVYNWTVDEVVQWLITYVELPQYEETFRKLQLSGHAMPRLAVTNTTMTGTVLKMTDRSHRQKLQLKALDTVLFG

B1: monoclonal anti-STIM1 antibody clone B-M4 (antibody, V domains shown)
VH: EVKLVESGGGLVQPGGSLKLSCAASGFTFSRYSMSWVRQTPEKRLEWVAHIRNGGGSTYYPDTVKGRFTISRDNAKNTLYLQMSSLKSEDTAMYYCARPPYGNYEGYFDVWGAGTTVTVSS
VL: DIVMSQSPSSLAVSAGEKVTMSCKSSQSLLNSRTRKNYLAWYQQKPGQSPKLLIYWASTRESGVPDRFTGSGSGTDFTLTISSVQAEDLAVYYCKQSYNLYTFGGGTKLEIK
notes: In the direct flow cytometry assays it was coupled to phycoerythrin (PE); also called B-M4 mAb; anti-STIM1 mAb clone B-M4
[1]
  EC50 (read off the curve): ~0.07 µg/mL
[2]
  koff: 0.000369 s⁻¹
[3]
  kon: 9960 M⁻¹ s⁻¹
Peptide 2A
  binding result: no binding
Peptide 1B
  binding result: no binding
[4]
  Kd: 37 nM
Peptide 1A
  binding result: no binding
[5]
  binding result: binds
[6]
  EC50 (read off the curve): ~0.02 µg/mL

From patent US20230058212A1 (UNIVERSIT DE BRETAGNE OCCIDENTALE UBO, published 2023)
